For 40 molecules, IC50 results are on record in patent US20150246947A1 (BAXALTA, published 2015).

Positions of bridges follow the written chain, without caps; N, C: chain ends.

T1: human Protein S (UniProt P07225 42-676)
T1 chain: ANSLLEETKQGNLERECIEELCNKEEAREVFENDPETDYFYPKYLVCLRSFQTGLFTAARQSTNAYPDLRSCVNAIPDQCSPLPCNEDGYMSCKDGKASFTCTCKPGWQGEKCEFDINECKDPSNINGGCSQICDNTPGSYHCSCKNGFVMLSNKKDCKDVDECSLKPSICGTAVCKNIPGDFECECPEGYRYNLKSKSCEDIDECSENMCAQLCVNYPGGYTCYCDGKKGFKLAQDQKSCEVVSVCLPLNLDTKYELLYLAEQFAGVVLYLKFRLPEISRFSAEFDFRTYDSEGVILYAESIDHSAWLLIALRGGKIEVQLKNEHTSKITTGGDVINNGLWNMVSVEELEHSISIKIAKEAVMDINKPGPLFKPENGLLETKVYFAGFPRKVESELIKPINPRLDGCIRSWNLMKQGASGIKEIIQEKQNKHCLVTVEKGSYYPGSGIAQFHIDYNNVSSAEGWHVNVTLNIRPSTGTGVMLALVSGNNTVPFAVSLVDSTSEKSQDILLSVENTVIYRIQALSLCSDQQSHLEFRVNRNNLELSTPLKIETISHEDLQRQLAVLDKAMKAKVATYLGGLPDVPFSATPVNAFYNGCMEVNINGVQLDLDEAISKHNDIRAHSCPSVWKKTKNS

B1: JBS3171 (peptide)
chain: Ac-TCLVSAGWYDYNCDHYREFT-NH2
modifications: disulfide 2-13
SMILES: CC(=O)N[C@H](C(=O)N[C@H]1CSSC[C@@H](C(=O)N[C@@H](CC(=O)O)C(=O)N[C@@H](Cc2c[nH]cn2)C(=O)N[C@@H](Cc2ccc(O)cc2)C(=O)N[C@@H](CCCNC(=N)N)C(=O)N[C@@H](CCC(=O)O)C(=O)N[C@@H](Cc2ccccc2)C(=O)N[C@H](C(N)=O)[C@@H](C)O)NC(=O)[C@H](CC(N)=O)NC(=O)[C@H](Cc2ccc(O)cc2)NC(=O)[C@H](CC(=O)O)NC(=O)[C@H](Cc2ccc(O)cc2)NC(=O)[C@H](Cc2c[nH]c3ccccc23)NC(=O)CNC(=O)[C@H](C)NC(=O)[C@H](CO)NC(=O)[C@H](C(C)C)NC(=O)[C@H](CC(C)C)NC1=O)[C@@H](C)O
B2: JBS3168 (peptide)
chain: Ac-TGLCVSAGWYDYNCDHYREFT-NH2
modifications: disulfide 4-14
SMILES: CC(=O)N[C@H](C(=O)NCC(=O)N[C@@H](CC(C)C)C(=O)N[C@H]1CSSC[C@@H](C(=O)N[C@@H](CC(=O)O)C(=O)N[C@@H](Cc2c[nH]cn2)C(=O)N[C@@H](Cc2ccc(O)cc2)C(=O)N[C@@H](CCCNC(=N)N)C(=O)N[C@@H](CCC(=O)O)C(=O)N[C@@H](Cc2ccccc2)C(=O)N[C@H](C(N)=O)[C@@H](C)O)NC(=O)[C@H](CC(N)=O)NC(=O)[C@H](Cc2ccc(O)cc2)NC(=O)[C@H](CC(=O)O)NC(=O)[C@H](Cc2ccc(O)cc2)NC(=O)[C@H](Cc2c[nH]c3ccccc23)NC(=O)CNC(=O)[C@H](C)NC(=O)[C@H](CO)NC(=O)[C@H](C(C)C)NC1=O)[C@@H](C)O
B3: JBS3160 (peptide)
chain: Ac-CGLVSAGWYDYNFCDHYREFT-NH2
modifications: disulfide 1-14
SMILES: CC(=O)N[C@H]1CSSC[C@@H](C(=O)N[C@@H](CC(=O)O)C(=O)N[C@@H](Cc2c[nH]cn2)C(=O)N[C@@H](Cc2ccc(O)cc2)C(=O)N[C@@H](CCCNC(=N)N)C(=O)N[C@@H](CCC(=O)O)C(=O)N[C@@H](Cc2ccccc2)C(=O)N[C@H](C(N)=O)[C@@H](C)O)NC(=O)[C@H](Cc2ccccc2)NC(=O)[C@H](CC(N)=O)NC(=O)[C@H](Cc2ccc(O)cc2)NC(=O)[C@H](CC(=O)O)NC(=O)[C@H](Cc2ccc(O)cc2)NC(=O)[C@H](Cc2c[nH]c3ccccc23)NC(=O)CNC(=O)[C@H](C)NC(=O)[C@H](CO)NC(=O)[C@H](C(C)C)NC(=O)[C@H](CC(C)C)NC(=O)CNC1=O

In one assay the target is T1, human Protein S. The assay can be described thus: LANCE competition. A digest of the protocol:
(§1)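 IC50 was derived by non-linear regression of the acceptor emission in a LANCE time-resolved FRET competition assay using europium-labelled Protein S, ULight-labelled streptavidin, a biotinylated tracer peptide and three-fold titrations of unlabelled test peptide. Reactions of 50 µl contained 10 nM Protein S, 100 nM streptavidin and 300 nM tracer at final concentration (2 nM Protein S and 60 nM tracer on a Tecan F500), were kept 1 hour at room temperature, and were read at Ex 340 nm, Em 665 nm.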
(In TR-FRET formats the signal depends on donor and acceptor labels being close together.)
The term IC50 denotes the concentration that gives 50% inhibition. A lower IC50 goes with greater potency. Ac-FGIISAGWYDYNEDAYSEFY-NH2 [JBS3270] gave an IC50 of 1.2 nM.

Ac-NMEVSAGWYDYNSDTYHEFW-NH2 [JBS3290] gave a half-maximal inhibitory concentration (IC50) of 3.4 nM.

Another assay has as its target T1, human Protein S. The assay can be described thus: LANCE competition. The source holds these as a separate data set. Put shortly:
as §1
As for MEYYVSAGWYDYNTDTYYEFE [JBS3215], the IC50 came to 0.8 nM.

B1 yielded an IC50 of 336 nM.

As to B2, the IC50 worked out at 604 nM.

The molecule Ac-TYYVSAGWYGYNNDRYYEFY-NH2 [JBS3250] had an IC50 of 22.7 nM.

With Ac-EYTVSAGWYDYNKDTYEEFK-NH2 [JBS3220], the IC50 stood at 3.5 nM. This IC50 lies about 6.5-fold lower than the previous one.

Ac-EYYVSAGWYDYNTDKYYEFI-NH2 [JBS3237]: the IC50 was found to be 1.5 nM.

In the case of CGLVSAGWYDYNCDHYREFT [JBS3170], the IC50 came to 206 nM. Against the preceding molecule, the IC50 is about 140-fold higher.

Consider Ac-TGLVSAGWYDYNFDHYYEFT-NH2 [JBS2941], for which the IC50 turned out to be 1.4 nM.

In turn, Ac-EYYVSAGWYDYNNDTYNEFW-NH2 [JBS3243] gave an IC50 of 1.3 nM.

Take Ac-SGLVSAGWYDYNFDSYREFT-NH2 [JBS3185]: the IC50 stood at 7.2 nM.

Ac-EEYVSAGWYDMNRDTYTEFY-NH2 [JBS3252] showed an IC50 of 12.8 nM.

As to Ac-SATVSAGWYDYNKDVYFEFE-NH2 [JBS3273], the 50% inhibitory concentration (IC50) came out at 2.3 nM.

In the case of Ac-EYYVSAGWYDYNYDVYTEFE-NH2 [JBS3248], the IC50 came to 3.7 nM.

As to Ac-EYYVSAGWYDYNSDTYFEFI-NH2 [JBS3245], the IC50 turned out to be 2 nM.

Take Ac-YGLVSAGWYDYNFDHYREFT-NH2 [JBS2928]: the IC50 came out at 3.7 nM. This IC50 is about 1.9-fold higher than that of the molecule before.

The molecule Ac-EYYVSAGWYDYNDDKYYEFE-NH2 [JBS3217] had an IC50 of 1.3 nM.

Regarding Ac-EYTVSAGWYDYNNDIYFEFY-NH2 [JBS3219], the IC50 came out at 1.1 nM.

On to Ac-EYYVSAGWYDYNNDIYYEFI-NH2 [JBS3240], for which the IC50 stood at 2 nM.

Ac-EYYVSAGWYDYNSDTYQEFI-NH2 [JBS3244]: the IC50 came to 4.7 nM.

Ac-EYYVSAGWYNYEEDSYYEFE-NH2 [JBS3247] returned an IC50 of 1.9 nM.

For the molecule Ac-EYYVSAGWYDYEHDTYLEFY-NH2 [JBS3246], the IC50 amounted to 2.2 nM. This IC50 and that of the molecule before are within 1.5-fold of each other.

The molecule Ac-TGLVSAGWYDYNFDHYREF-NH2 [JBS3181] showed an IC50 of 9.5 nM.

Molecule Ac-QYYVVAGWYDYNTDSYYEFD-NH2 [JBS3251] showed an IC50 of 0.6 nM.

The molecule Ac-EYYVSAGWYDYNTDTYYEFD-NH2 [JBS3231] registered an IC50 of 1.5 nM.

In the case of Ac-EYYVSAGWYDYNADTYYEFE-NH2 [JBS3234], the IC50 was determined as 2.7 nM.

CGLVSAGWYDCYNFDHYREFT [JBS3157]: the IC50 came to 812 nM.

Ac-EYYVSAGWYDYNTDRYYEFY-NH2 [JBS3238] yielded an IC50 of 1.3 nM.

As for Ac-EYYVSAGWYDTNNDRYYEFI-NH2 [JBS3239], the IC50 stood at 2 nM. Against the preceding molecule, the IC50 is about 1.5-fold higher.

The molecule Ac-TCLVSAGWYDYNFDCYREFT-NH2 (disulfide 2-15 (inferred); not fully specified) [JBS3173] showed an IC50 of 208 nM.

With Ac-EYYVSAGWHDYNKDIYFEFF-NH2 [JBS3242], the IC50 came to 67.8 nM.

Ac-GLVSAGWYDYNFDHYREFT-NH2 [JBS3180] showed an IC50 of 9 nM.

Consider CGLVSAGWYDYNFDCYREFT [JBS3172], for which the IC50 came to 55.2 nM.

The molecule Ac-GLVSAGWYDYNFDHYREF-NH2 [JBS3182] returned a 50% inhibitory concentration (IC50) of 20.9 nM.

Consider B3, for which the IC50 came out at 981 nM.

TGCLVSAGWYDYNCDHYREFT [JBS3169] gave an IC50 of 544 nM.

Ac-EYYVSAGWYDYNNDTYYEFE-NH2 [JBS3233]: the IC50 turned out to be 0.9 nM.

In turn, Ac-DDEVSIGWYDYNTDEYVEFW-NH2 [JBS3295] returned an IC50 of 14.6 nM.

MEYYVSAGWYDYNTDTYYEFE [JBS3224] displayed an IC50 of 1.3 nM. This IC50 lies about 11-fold lower than the previous one.
